PMC12902261

Biological target: NbMTA (Nicotiana benthamiana) (UniProt A0A1J6JV69)
Experiment: BLI
Settings: Octet RED 96, Super Streptavidin sensors, 100 nM biotinylated ssRNA loaded, NbMTA (50 nM stated; serial dilutions), equilibration in 0.01 M saline, PBS …

Question: “GGGAAAAAUAAAUCCAAAAGAAUUCAAGCCUUGAAGUUUCGCCAUGCUCGUGACAAAAGGGCUGGUUUUGAAAUUGACAACAAUGAUGACACAAUAGAGGAAUUCUUUGGAUCUGCAUACAGGAAAAAGGGAAAAGGUAAAGGUACCACUGUUGGUAUGGGCAAGUCAAGCAGAAGGUUUGUUAA [PVY NIa peak 2-1 probe]” was tested. Which Kd did it give?
Answer: > 30 µM

Question: For “UCUGGGACACAUACUGUGCCGAGAAUCAAGGCUAUCACGUCCAAAAUGAGAAUGCCCAAAAGCAAGGGAGCAACCGUGCUAAACUUAGAACACUUGCUUGAGUAUGCUCCACAACAAAUUGAUAUUUCAAAUACUCGGGCAACUCAAUCACA [PVY CP peak 3 probe]”, which Kd is on record?
Answer: 3.1 µM

Question: For “UGCAGUUCGUUCAUCACCAAGCUACGACGUCACUUGCAAAGGAUCUCAAGUUGAAGGGGACUUGGAAGAAGUCAUUAGUGGCCAAAGACUUGAUCAUAGCAGGCGCUGUUGCAAUUGGUGGAAUAGGACUCAUAUAUAGUUGGUUCACACAAUCAGUUGAGACUGUGUCUCACCAA [PVY 6K2 peak 2-1 probe]”, which Kd is on record?
Answer: > 30 µM
